One molecule from PMC2806950, “Dissection of the DNA Mimicry of the Bacteriophage T7 Ocr Protein using Chemical Modification” (Journal of Molecular Biology, 2009) can be followed below.

Common to all, as to conditions: both partners purified
Experiment [1] deals with T1, M.EcoKI, DNA methyltransferase component (M2S1) of the EcoKI type I R/M system (E. coli K12, UniProt P08957 1-529; P05719 1-464).
T1 construct: M subunit (DNA methyltransferase activity) of the EcoKI type I R/M system of E. coli K12; also called methyltransferase core; copies: 2 + 1
T1 sequence (looked up) 1: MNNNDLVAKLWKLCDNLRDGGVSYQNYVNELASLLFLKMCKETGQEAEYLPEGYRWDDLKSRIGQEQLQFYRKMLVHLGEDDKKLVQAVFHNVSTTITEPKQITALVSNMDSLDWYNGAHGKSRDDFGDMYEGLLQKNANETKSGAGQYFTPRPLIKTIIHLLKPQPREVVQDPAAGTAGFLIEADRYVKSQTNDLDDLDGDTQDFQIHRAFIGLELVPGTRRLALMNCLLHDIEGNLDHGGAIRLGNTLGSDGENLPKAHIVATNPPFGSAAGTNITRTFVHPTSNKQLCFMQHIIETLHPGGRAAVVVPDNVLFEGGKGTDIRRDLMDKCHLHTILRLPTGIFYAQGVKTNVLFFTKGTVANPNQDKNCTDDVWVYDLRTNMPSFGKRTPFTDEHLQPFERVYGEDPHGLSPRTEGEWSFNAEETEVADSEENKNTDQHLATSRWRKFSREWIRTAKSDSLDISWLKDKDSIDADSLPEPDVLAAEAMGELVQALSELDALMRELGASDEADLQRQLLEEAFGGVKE
T1 sequence (looked up) 2: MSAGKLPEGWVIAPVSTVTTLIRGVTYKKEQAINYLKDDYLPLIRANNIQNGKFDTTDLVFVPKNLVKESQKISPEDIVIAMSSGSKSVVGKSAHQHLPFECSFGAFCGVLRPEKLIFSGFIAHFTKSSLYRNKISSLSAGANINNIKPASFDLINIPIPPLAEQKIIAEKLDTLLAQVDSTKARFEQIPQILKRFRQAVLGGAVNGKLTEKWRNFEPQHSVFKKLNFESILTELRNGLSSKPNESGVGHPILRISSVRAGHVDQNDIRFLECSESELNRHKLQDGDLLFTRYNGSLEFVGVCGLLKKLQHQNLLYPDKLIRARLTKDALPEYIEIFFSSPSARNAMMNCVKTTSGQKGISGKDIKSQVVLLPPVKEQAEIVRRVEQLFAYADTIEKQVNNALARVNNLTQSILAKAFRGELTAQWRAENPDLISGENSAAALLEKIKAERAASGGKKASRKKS
Put plainly: ITC; as the Tris experiment but 20 mM Hepes in place of Tris-HCl, 25 °C, no NaCl. For orientation: ITC needs no label: the signal is the heat of the interaction.

The target in experiment [2] is T1, M.EcoKI, DNA methyltransferase …. Nature of the experiment: ITC; Ocr (typically 40 uM) titrated into M.EcoKI (4 uM); 20 mM Tris-HCl pH 8.0, 6 mM MgCl2, 7 mM 2-mercaptoethanol, 100 uM SAM, with or without 500 mM NaCl; 10 to 30 °C.
Experiment [3] has the same target. Nature of the experiment: fluorescence polarisation; competition with DNA: M.EcoKI titrated into 50 nM Ocr and 2 nM of a 21-bp DNA duplex fluorescently labelled at the 5' end; anisotropy of the DNA monitored. On the technique in general: Fluorescence polarisation rises when a labelled molecule tumbles more slowly, as on binding a larger partner.

B1: Ocr (overcome classical restriction) protein of bacteriophage T7, unmodified (natural protein, UniProt P03775 1-117, looked up)
chain: MAMSNMTYNNVFDHAYEMLKENIRYDDIRDTDDLHDAIHMAADNAVPHYYADIFSVMASEGIDLEFEDSGLMPDTKDVIRILQARIYEQLTIDLWEDAEDLLNEYLEEVEEYEEDEE
notes: Ocr, product of gene 0.3 of bacteriophage T7; 116-amino-acid monomer as printed; Homodimer; also called WT; wild type Ocr; source: plasmid pAR2993 with the gene encoding WT Ocr
For orientation: Kd means the constant that tells how readily two partners part at equilibrium. A high value points to a looser complex. With B1, the dH in experiment [1] was -21.5 kcal/mol. In experiment [2], the dH is -20.6 kcal/mol and the “stoichiometry N” value was 1 Ocr dimer per molecule of M.EcoKI. Also, the Kd in experiment [3] turned out to be 0.044 nM.
